# Measurements as given in paper PMC9223585, “Structural and Functional Insights into CP2c Transcription Factor Complexes” (International Journal of Molecular Sciences, 2022).
# B1: CP2c (TFCP2), endogenous human (natural protein, human (endogenous in MDA-MB-231), UniProt Q12800-1 1-502, looked up)
# chain: MAWALKLPLADEVIESGLVQDFDASLSGIGQELGAGAYSMSDVLALPIFKQEESSLPPDNENKILPFQYVLCAATSPAVKLHDETLTYLNQGQSYEIRMLDNRKLGELPEINGKLVKSIFRVVFHDRRLQYTEHQQLEGWRWNRPGDRILDIDIPMSVGIIDPRANPTQLNTVEFLWDPAKRTSVFIQVHCISTEFTMRKHGGEKGVPFRVQIDTFKENENGEYTEHLHSASCQIKVFKPKGADRKQKTDREKMEKRTPHEKEKYQPSYETTILTECSPWPEITYVNNSPSPGFNSSHSSFSLGEGNGSPNHQPEPPPPVTDNLLPTTTPQEAQQWLHRNRFSTFTRLFTNFSGADLLKLTRDDVIQICGPADGIRLFNALKGRMVRPRLTIYVCQESLQLREQQQQQQQQQQKHEDGDSNGTFFVYHAIYLEELTAVELTEKIAQLFSISPCQISQIYKQGPTGIHVLISDEMIQNFQEEACFILDTMKAETNDSYHIILK
# notes: transcription factor CP2c (TFCP2, LBP-1c), endogenous in the human breast cancer line MDA-MB-231; both are human cells; also called α-CP2; LSF; source: endogenous, MDA-MB-231 nuclear and cytosolic lysate
# Target: the molecule itself
# Assay: cross-linking + co-IP; DSP XL-WB: nuclear extracts of MDA-MB-231 cells, Benzonase, 2 mM DSP 30 min at room temperature, IP with CP2c, CP2b or PIAS1 antibodies, sequential Western blot with and without DTT
protein,measurement,value
B1,stoichiometry N,4
